Measured values: patent US20240425588A1 (APEXIMMUNE THERAPEUTICS, published 2024)
Changes are numbered by the printed parent chain.

B1: 45.3D7.F7 (antibody, V domains shown)
VH: QVQLQQSGPELVKPGASVKISCKASGYGFSGYWMNWVKQGPGKGLEWIGRIFPGDGDTDYNGKLKDKATLTAYKSSSTAYLQLSSLTSEDSAVYFCARWLGGFTSWGQGTLVTVSA
VL: QIVLSQSPAILSASPGEKVTMTCRASASVSYMHWYQQKPGSSPKPWIYATSNLASGVPARFSGSGSGTSYSLTISRVEAEDAATYYCQQWSSDPPTFGAGTKLELK
notes: Mouse hybridoma antibody, tested as supernatant or protein G purified
B2: 45.75D4.D3.D9 (antibody, V domains shown)
VH: EVQLQQSGPELVKPGASMKMSCKASGYKFTSYVMHWVKQKPGQGLEWIGYIDPYNDGSKYNEKFKGKATLTSDKSSSIAYMELSSLTSEDSAVFYCARGGSRGWYFDVWGAGTTVTVSS
VL: DIQMTQSPASLSASVGETVTFTCRTNENIYSYLTWYQQKQGKSPQVLVYNAKTLAEGVPSRFSGSGSGTQFSLKINSLQPEDFGSYFCQHHFGNPLTFGAGTKLELK
notes: as for B1
B3: 45.86C5.C3 (antibody, V domains shown)
VH: DVQLQESGPGLVKPSQSLSLTCTVTGYSITSGYDWHWIRHFPGNILEWMGYISDSGNTIYSPSLKSRISITHDTSKNHFFLKLNSVTSEDTATYYCARGSFWYFDVWGAGTTVTVSS
VL: B2 VL with F21I, T25V, N26S, T34A, V46L, A51T, F87Y, F92Y
notes: as for B1
B4: 45.87B8.H2.H5 (antibody, V domains shown)
VH: B3 VH with G32A, H40L, N44H, D54Y, S61N, S88T
VL: DIQMTQSPASLSASVGETVTITCRVSEHIYNYLAWYQQKQGKSPQLLVYNAKTLAEGVPSRFSGSGSGTQFSLKINSLQPEDFGTYYCQHNYGNPLTFGAGTKVELK
notes: as for B1
B5: 45.32A8.G6 (antibody, V domains shown)
VH: QVQLKESGPGLVAPSHSLSITCTVSGFSLTNYNINWIRQPPGKGLEWLGIIWTGGGTNYNSAFMSTLSINKDNSKSQVFLKMNRMQTDDTTIYYCVRETYFNNYGFYFDYWGQSTTLTVSS
VL: EIVLTQSPTTMAASPGEKITITCSASSSISSNYLHWYQQKPGFSPKLLIYRTSNLASGVPARFSGSGSGTSYSLTIGTMEAEDVATYYCQQGSSIPRTFGGGTKLEIK
notes: as for B1
B6: 45.50C2.A6 (antibody, V domains shown)
VH: B5 VH with H16Q, I50V, T66R, N70S, M85L, T91A, T99A, N102S, S114G
VL: B5 VL
notes: as for B1
B7: 45.32B10.A4 (antibody, V domains shown)
VH: EVQLVESGGVLVKPGGSLKLSCAASGFTFSNYVMSWVRQTPEKRLEWVATITSGGTYTYYPDSVKGRFTISRDNAKNILYLQMSSLRSEDTALYYCTRWLLSLYAMDYWGQGTSVTVSS
VL: DIQMTQTTSSLSASLGDRVTITCRASQDISNFLNWYQQKPDGTVKLLIYYTSRLHSGVPSRFSGSGSGTDYSLTISNLEQEDIATYFCQQGKTYPYTFGGGTKVEIK
notes: as for B1
B8: hu32B10 (45.32B10.A4) (antibody, V domains shown)
VH: EVQLLESGGGLVQPGGSLRLSCAASGFTFSNYVMSWVRQAPGKGLEWVSTITSGGTYTYYPDSVKGRFTISRDNSKNTLYLQMNSLRAEDTAVYYCTRWLLSLYAMDYWGQGTTVTVSS
VL: DIQMTQSPSSLSASVGDRVTITCRASQDISNFLNWYQQKPGKAVKLLLYYTSRLHSGVPSRFSGSGSGTDYTLTISSLQPEDFATYFCQQGKTYPYTFGGGTKVEIK
notes: Humanized antibody; also called humanized 45.32B10.A4
B9: 45.56F7.A1 (antibody, V domains shown)
VH: B7 VH with V10A, V33A, T52S, T56S, I78T, T97A
VL: B7 VL with I2F, T22S, A25S, F32Y, Y50R, Q80R, Y94P, V104L
notes: as for B1
B10: 45.62B12.G5 (antibody, V domains shown)
VH: DVQLQESGPGLVKPSQSLSLTCTVTGYSITSAYDWHWIRHFPGNILEWMGYIRNSGSTNYNPLLKSRISITHDTSQNHFSLKLNSVTTEDTATYYCARGLFWYFDVWGAGTTVTVSS
VL: B4 VL with V25A, H28N, A34T, T85S, N91H, V104L
notes: as for B1

Target: T1, human TIGIT expressed on the cell surface of Jurkat cells (human, UniProt Q495A1 22-244)
T1 construct: also called Jurkat-hTIGIT; cell surface TIGIT
T1 sequence: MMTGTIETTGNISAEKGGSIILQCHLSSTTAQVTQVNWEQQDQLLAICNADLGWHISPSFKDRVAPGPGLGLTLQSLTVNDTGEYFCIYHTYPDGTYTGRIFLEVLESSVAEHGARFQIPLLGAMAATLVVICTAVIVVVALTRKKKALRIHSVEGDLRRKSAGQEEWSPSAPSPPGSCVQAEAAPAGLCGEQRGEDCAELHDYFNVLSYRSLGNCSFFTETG
Assay: flow cytometry on Jurkat-hTIGIT cells
Method: Supernatants from ELISA-positive clones or purified antibodies were further tested for their ability to bind to human TIGIT or rhesus TIGIT expressed on the cell surface of Jurkat cells (Jurkat-hTIGIT or Jurkat-rhesTIGIT) by flow cytometry. Jurkat-hTIGIT or Jurkat-rhesTIGIT cells were harvested and 1×10⁵ cells per well plated in 96-well U-bottom plates and the supernatant removed. 50 μl of hybridoma supernatant or purified antibody at the specified dilution or concentration was added to each well and incubated at 4° C. for 30 minutes. Assay plates were washed 2 times with PBS and antibody binding detected using a PE-labeled goat anti-mouse antibody (Biolegend) at 1:400 dilution in PBS for 30 minutes at 4° C. Plates were washed 2 times and analyzed on a BD LSRFortessa X-20 flow cytometer (Becton Dickinson).

Binder	binding result
B1	binds
B2	binds
B3	binds
B4	binds
B5	binds
B6	binds
B7	binds
B8	binds
B9	binds
B10	binds
